According to US20040022772A1 (University of Texas, published 2004):

Biological target: T1, p185 BCR-ABL (human, UniProt P00519 27-1130)
T1 construct: Endogenous protein of the SUP-B15 ALL cell line; also called Bcr-Abl oncoprotein (SUP-B15 cells)
Assay: co-precipitation of Bcr-Abl with Bcr by anti-BCR (1256-1271), immunokinase assay, SUP-B15 cells
Procedure: The effects of the sense and antisense 3′ BCR oligonucleotides were tested on BCR expression in SUP-Bi5 cells, a cell line derived from a Ph¹-positive acute lymphocytic leukemia patient that expresses p185 BCR—ABL.
In this study, equal amounts of the sense and the antisense oligonucleotide treated B15 cells were analyzed.

B1: p160 BCR (enzyme, human, UniProt P11274 1-1271, looked up)
chain: MVDPVGFAEAWKAQFPDSEPPRMELRSVGDIEQELERCKASIRRLEQEVNQERFRMIYLQTLLAKEKKSYDRQRWGFRRAAQAPDGASEPRASASRPQPAPADGADPPPAEEPEARPDGEGSPGKARPGTARRPGAAASGERDDRGPPASVAALRSNFERIRKGHGQPGADAEKPFYVNVEFHHERGLVKVNDKEVSDRISSLGSQAMQMERKKSQHGAGSSVGDASRPPYRGRSSESSCGVDGDYEDAELNPRFLKDNLIDANGGSRPPWPPLEYQPYQSIYVGGMMEGEGKGPLLRSQSTSEQEKRLTWPRRSYSPRSFEDCGGGYTPDCSSNENLTSSEEDFSSGQSSRVSPSPTTYRMFRDKSRSPSQNSQQSFDSSSPPTPQCHKRHRHCPVVVSEATIVGVRKTGQIWPNDGEGAFHGDADGSFGTPPGYGCAADRAEEQRRHQDGLPYIDDSPSSSPHLSSKGRGSRDALVSGALESTKASELDLEKGLEMRKWVLSGILASEETYLSHLEALLLPMKPLKAAATTSQPVLTSQQIETIFFKVPELYEIHKEFYDGLFPRVQQWSHQQRVGDLFQKLASQLGVYRAFVDNYGVAMEMAEKCCQANAQFAEISENLRARSNKDAKDPTTKNSLETLLYKPVDRVTRSTLVLHDLLKHTPASHPDHPLLQDALRISQNFLSSINEEITPRRQSMTVKKGEHRQLLKDSFMVELVEGARKLRHVFLFTDLLLCTKLKKQSGGKTQQYDCKWYIPLTDLSFQMVDELEAVPNIPLVPDEELDALKIKISQIKNDIQREKRANKGSKATERLKKKLSEQESLLLLMSPSMAFRVHSRNGKSYTFLISSDYERAEWRENIREQQKKCFRSFSLTSVELQMLTNSCVKLQTVHSIPLTINKEDDESPGLYGFLNVIVHSATGFKQSSNLYCTLEVDSFGYFVNKAKTRVYRDTAEPNWNEEFEIELEGSQTLRILCYEKCYNKTKIPKEDGESTDRLMGKGQVQLDPQALQDRDWQRTVIAMNGIEVKLSVKFNSREFSLKRMPSRKQTGVFGVKIAVVTKRERSKVPYIVRQCVEEIERRGMEEVGIYRVSGVATDIQALKAAFDVNNKDVSVMMSEMDVNAIAGTLKLYFRELPEPLFTDEFYPNFAEGIALSDPVAKESCMLNLLLSLPEANLLTFLFLLDHLKRVAEKEAVNKMSLHNLATVFGPTLLRPSEKESKLPANPSQPITMTDSWSLEVMSQVQVLLYFLQLEAIPAPDSKRQSILFSTEV
notes: also called normal Bcr protein; wild-type Bcr
binding result: binds
